# Experimental data from PMC7573392, “Monitoring Allosteric Interactions with CXCR4 Using NanoBiT Conjugated Nanobodies” (Cell Chemical Biology, 2020).
# What was measured:
# [1] = molecular target: T1, LgBiT-CXCR4 (Homo sapiens, UniProt P61073); experiment: NanoBiT saturation binding (complemented luminescence) in HEK293 cells stably expressing LgBiT-CXCR4; conditions: increasing concentrations added to HEK LgBiT-CXCR4 cells
# T1 construct: GSSG linker and TEV recognition site (EDLYFQS), between LgBiT and CXCR4 (N); expressed in transfected cells; whole cells in A1-A4, isolated membranes in A9/A10
# T1 sequence (P61073 2-352 limits assumed): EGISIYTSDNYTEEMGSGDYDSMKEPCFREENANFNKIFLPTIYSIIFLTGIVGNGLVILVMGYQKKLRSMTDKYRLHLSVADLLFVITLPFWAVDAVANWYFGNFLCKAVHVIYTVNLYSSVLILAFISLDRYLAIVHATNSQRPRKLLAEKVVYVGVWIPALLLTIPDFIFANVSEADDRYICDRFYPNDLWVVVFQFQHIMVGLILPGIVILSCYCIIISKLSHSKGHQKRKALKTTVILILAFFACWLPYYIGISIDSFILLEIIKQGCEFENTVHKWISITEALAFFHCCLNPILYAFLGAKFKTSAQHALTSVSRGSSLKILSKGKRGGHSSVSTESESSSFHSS
# Experimental: Saturation binding with VUN400-HiBiT was performed on HEK 293 cells stably expressing the LgBiT-CXCR4 receptor. Cells were plated at 30,000 cells/well in white 96-well plates previously coated with poly-D-lysine (10 μg/ml in PBS) in 100 μl complete media (DMEM with 10% FCS). After 24 hours, the media was removed and replaced with 100 μl HBSS containing VUN400-HiBiT within the range of 4-500 nM. Where used, CXCL12, AMD3100 or IT1t were also added at this point. The plate was incubated for two hours at 37°C. Furimazine (1:400 final concentration) was added to each well and the plate was incubated for a further 15 minutes at 37°C. Luminescence was measured using the PHERAstar FS plate reader.
# Saturation binding curves of VUN400-HiBiT were fitted using the following equation: Specificbinding=Bmax×[B]/[B]+KD where Bmax is the maximal specific binding, [B] is the concentration of VUN400-HiBiT, and KD is the equilibrium dissociation constant (nM).
# [2] = molecular target: T1, LgBiT-CXCR4; experiment: NanoBiT association kinetic measurements (complemented luminescence) in HEK293 cells stably expressing LgBiT-CXCR4; format: binding; conditions: KD = koff/kon at LgBiT-CXCR4
# Experimental: Cells (30,000 per well) were plated in white 96-well poly-D-lysine coated plates (10 μg/ml in PBS) as described above. After 24 hours, media was removed and replaced with 50 μl HBSS containing furimazine (1:400 final concentration) and incubated at 37°C for 10 minutes and basal luminescence was measured. […] The resulting luminescence was measured over 60 minutes at 37°C. Luminescence was measured using the PHERAstar FS plate reader.
# Nanobody binding association kinetic data were fitted to the following mono-exponential association function: Y=Ymax(1−e^−kobs.t) where Ymax is the specific binding at infinite time, t is the time of incubation, and kobs is the rate constant for the observed rate of association.
# kon and koff values were determined by simultaneously fitting nanobody binding association kinetic curves obtained at different nanobody concentrations (L) to the equation above with the relationship between kobs and the two kinetic binding rate constants kon and koff given by: kon=kobs−koff/L
# Kinetically determined nanobody KD values were determined with the following equation: KD=koff/kon
substance,measurement,setting,value
"HiBiT: purified HiBiT-HaloTag fusion protein, circa 34 kDa (Promega)",saturation binding (in words),[1],"linear, indicative of low affinity"
same,pKD (determined from kinetic rate constants),[2],6.4
